According to WO2009082624A2 (dated 2009):

What was measured:
[1] = biological target: T1, human IL-23 (p19/p40 heterodimer), recombinant (human, UniProt Q9NPF7 20-189; P29460 23-328); assay: SPR (Biacore T-100), IL-23 immobilised on CM5, bivalent interaction model
T1 construct: R&D Systems without tags; eBioscience insect heterodimer; Whole entries named; also called hIL-23; rhIL-23
T1 sequence 1: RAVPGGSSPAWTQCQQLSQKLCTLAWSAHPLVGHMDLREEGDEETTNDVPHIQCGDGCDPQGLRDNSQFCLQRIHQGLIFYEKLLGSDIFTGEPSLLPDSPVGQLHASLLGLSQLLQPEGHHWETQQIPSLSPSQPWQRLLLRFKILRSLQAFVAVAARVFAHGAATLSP
T1 sequence 2: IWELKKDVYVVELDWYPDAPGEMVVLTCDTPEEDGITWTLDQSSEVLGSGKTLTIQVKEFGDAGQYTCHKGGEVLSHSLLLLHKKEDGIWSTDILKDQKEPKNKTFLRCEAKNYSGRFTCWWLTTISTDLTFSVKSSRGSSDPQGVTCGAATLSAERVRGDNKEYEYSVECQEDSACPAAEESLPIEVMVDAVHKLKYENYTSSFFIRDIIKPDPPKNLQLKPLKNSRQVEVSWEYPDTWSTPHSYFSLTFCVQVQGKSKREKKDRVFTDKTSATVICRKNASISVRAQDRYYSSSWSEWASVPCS

[2] = biological target: T1, human IL-23 (p19/p40 heterodimer), …; assay: cell-based or functional assay
[3] = biological target: T1, human IL-23 (p19/p40 heterodimer), …; assay: SPR off-rate analysis (Biacore T-100), IL-23 immobilised, 1:1 model

B1: human IL-23R-Fc soluble receptor (ZymoGenetics) (Fc fusion)
chain: GITNINCSGHIWVEPATIFKMGMNISIYCQAAIKNCQPRKLHFYKNGIKERFQITRINKTTARLWYKNFLEPHASMYCTAECPKHFQETLICGKDISSGYPPDIPDEVTCVIYEYSGNMTCTWNAGKLTYIDTKYVVHVKSLETEEEQQYLTSSYINISTDSLQGGKKYLVWVQAANALGMEESKQLQIHLDDIVIPSAAVISRAETINATVPKTIIYWDSQTTIEKVSCEMRYKATTNQTWNVKEFDTNFTYVQQSEFYLEPNIKYVFQVRCQETGKRYWQPWSSPFFHKTPETVPQVTSKAFQHDTWNSGLTVASISTGHLTSDNRGDIG
With B1 the Kd [1] was 0.8 nM, the “IC50, IL-23-mediated IL-17A/A production in murine splenocytes” value [2] was 26 nM and the koff [3] was ~0.0004 s⁻¹.
